This is an account of results in publication PMC9156741, “Blocking phospholamban with VHH intrabodies enhances contractility and relaxation in heart failure” (Nature Communications, 2022).

The target of assay [1] is T1, pS16 PLN peptide VI (biotin-HPDP-Cys-EKVQYLTRSAIRRApSTIEMPQQARQ-NH2) (phosphoserine at Ser 16 (pS in the printed sequence); biotin-HPDP on the N-terminal Cys (cysteine persulphide); C-terminal amidation).
T1 peptide: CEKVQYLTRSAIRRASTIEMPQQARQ
The assay is described as follows: SPR; pS16 phosphorylated. On the technique in general: In SPR one partner is held on a chip, and binding of the other changes the refractive index at the surface.

In assay [2] the target is pS16 PLN peptide VI (biotin-HPDP-Cys-…p…-NH2). Briefly: SPR; Biacore T200; peptide V or VI immobilised on streptavidin SA chip (50-100 RU); VHH as analyte, single-cycle kinetics with five increasing concentrations; PBS pH 7.4 + 0.05% Tween 20; 1:1 Langmuir model.
The target of assay [3] is T2, PLN peptide V (biotin-HPDP-Cys-EKVQYLTRSAIRRASTIEMPQQARQ-NH2) (biotin-HPDP on the N-terminal Cys (cysteine persulphide); C-terminal amidation).
T2 peptide: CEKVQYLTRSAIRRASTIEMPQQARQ
Briefly: SPR.

In assay [4] the target is T2, PLN peptide V …. The assay is described as follows: SPR.
The target of assay [5] is T3, PLN peptide V (biotin-HPDP-Cys-EKVQYLTRSAIRRASTIEMPQQARQ-NH2) (biotin-HPDP on the N-terminal Cys (cysteine persulphide); C-terminal amidation).
T3 construct: added N-terminal cysteine residue that carries biotin-HPDP; phospholamban (PLN), stretch of the cytoplasmic regulatory domain; also called non-phosphorylated PLN peptide; source: synthetic peptide (Bachem, Switzerland)
T3 peptide: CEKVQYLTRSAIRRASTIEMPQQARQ
Briefly: SPR; Biacore T200; peptide V or VI immobilised on streptavidin SA chip (50-100 RU); VHH2 as analyte, single-cycle kinetics; PBS pH 7.4 + 0.05% Tween 20; bivalent analyte model; apparent Kd. The following applies: both partners purified.

For assay [6], the target named is T4, pS16 PLN peptide VI (biotin-HPDP-Cys-EKVQYLTRSAIRRApSTIEMPQQARQ-NH2) (phosphoserine at Ser 16 (pS in the printed sequence); biotin-HPDP on the N-terminal Cys (cysteine persulphide); C-terminal amidation).
T4 construct: added N-terminal cysteine residue that carries biotin-HPDP; phospholamban (PLN), stretch of the cytoplasmic regulatory domain, phosphorylated at Ser 16; also called p16S PLN peptide; source: synthetic peptide (Bachem, Switzerland)
T4 peptide: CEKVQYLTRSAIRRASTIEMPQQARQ
The assay is described as above. The following applies: both partners purified.

Assay [7] concerns the target T3, PLN peptide V …. The assay is described as follows: SPR; Biacore T200; peptide V or VI immobilised on streptavidin SA chip (50-100 RU); VHH as analyte, single-cycle kinetics with five increasing concentrations; PBS pH 7.4 + 0.05% Tween 20; 1:1 Langmuir model. Conditions: both partners purified.
Assay [8] concerns the target T4, pS16 PLN peptide VI …. The assay is described as above. The following applies: both partners purified.
Assay [9] addresses T1, pS16 PLN peptide VI …. Briefly: SPR; pS16 phosphorylated; kinetic fit.

B1: VHH C6 (VHH)
VHH: EVQLQESGGGLVQAGGSLRLSCAASGFTLYAMGWFRQAPGKEREFVAAITPHGSTTYYADSVKGRFTISRDNAKNTVYLQMNSLKPEDTAVYYCHTYYSGSWGQGTQVTVSS
The term koff denotes a measure of how fast the partners let go of each other. A low value points to a long-lived complex. In turn, B1 showed a koff in assay [1] of 0.33 s⁻¹. Also, the Kd in assay [2] is 680 nM.

B2: VHH2 B4B4 (VHH)
chain: EVQLQESGGGLVQAGGSLRLSCAASGFSFYRHAMGWFRQAPGKEREWVAEIDWEGGYTYYADSVKGRFTISRDNAKNTVYLQMNSLKPEDTAVYYCAAGRDLYAYWGQGTQVTVSSGGGSGGGSGGGSEVQLQESGGGLVQAGGSLRLSCAASGFSFYRHAMGWFRQAPGKEREWVAEIDWEGGYTYYADSVKGRFTISRDNAKNTVYLQMNSLKPEDTAVYYCAAGRDLYAYWGQGTQVTVSS
notes: N-terminal VHH B4 domain; (Gly3Ser)3 linker, as named in the methods and encoded by the printed primers; C-terminal VHH B4 domain; Bivalent VHH on one chain; also called bivalent variant of VHH B4; bivalent VHH2 B4B4; source: E. coli HB2151 (pHEN4 vector); expressed and purified according to previously described protocols
Turning to B2, the figures for the koff in assay [1] and in assay [3] were 0.0052 s⁻¹ and 0.00011 s⁻¹, respectively. Moreover, the Kd in assay [4] worked out at 0.1 nM; in assay [5], 0.15 nM; in assay [6] it was 1 nM.

B3: VHH B4 (VHH)
VHH: EVQLQESGGGLVQAGGSLRLSCAASGFSFYRHAMGWFRQAPGKEREWVAEIDWEGGYTYYADSVKGRFTISRDNAKNTVYLQMNSLKPEDTAVYYCAAGRDLYAYWGQGTQVTVSS
notes: VHH B4, from the synthetic LlamdA phage-display VHH library (llama VHH framework); also called clone B4; source: E. coli HB2151, small-scale cultures induced with IPTG (ELISA); expressed and purified according to previously described protocols (SPR)
For B3, the Kd in assay [7] is 44 nM; in [8], 682 nM; in assay [9], 618 nM. Besides, the koff in [1] is 0.18 s⁻¹; in assay [3], 0.025 s⁻¹.
